Measurements taken from the supplement of paper PMC7125110.
± gives the standard error. For part of these data: This sample holds only a part of the variants without activity.

B1: glmS ribozyme (parent)
chain: AUAAAAGCGCCAGAACUACAGAAAUGUAGUUGACGAGGAGGAGGUUUAUCGAAUUUUCGGCGGAUGCCUCCAAA

Columns and labels:
Conditions in all cases: with glucosamine-6-phosphate
glucosamine-6-phosphate [1] = variants of: B1; assay: kcat; higher = faster cleavage; RNA array
Procedure, shortened: (§1)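 Barcoded ribozyme variants on sequenced MiSeq chips were transcribed in situ by E. coli RNA polymerase and followed at 37 °C through a hybridised Cy3 probe. Glucosamine-6-phosphate at 40 μM to 10 mM in HEPES/KCl/Mg(OAc)2 buffer was flowed in, and tiles were imaged over ~14 h. Signals were normalised to baseline and to non-cleaving reference variants, and per-tile medians were fit to one- or two-exponential decays to give kobs. Weighted Michaelis–Menten fits across concentrations gave kcat and KM.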

glucosamine-6-phosphate [2] = variants of: B1; assay: self-cleavage kobs at 2500 uM GlcN6P; higher = faster cleavage; RNA array
Procedure, shortened: as §1

glucosamine-6-phosphate [3] = variants of: B1; assay: KM; higher = weaker cofactor use; RNA array
Procedure, shortened: as §1

glucosamine-6-phosphate [4] = variants of: B1; assay: self-cleavage kobs at 40 uM GlcN6P; higher = faster cleavage; RNA array
Procedure, shortened: as §1

glucosamine-6-phosphate [5] = variants of: B1; assay: self-cleavage kobs at 160 uM GlcN6P; higher = faster cleavage; RNA array
Procedure, shortened: as §1

glucosamine-6-phosphate [6] = variants of: B1; assay: self-cleavage kobs at 640 uM GlcN6P; higher = faster cleavage; RNA array
Procedure, shortened: as §1

glucosamine-6-phosphate [7] = variants of: B1; assay: self-cleavage kobs at 10000 uM GlcN6P; higher = faster cleavage; RNA array
Procedure, shortened: as §1

Variant	kcat (glucosamine-6-phosphate [1])	self-cleavage kobs at 2500 uM GlcN6P (glucosamine-6-phosphate [2])	KM (glucosamine-6-phosphate [3])	self-cleavage kobs at 40 uM GlcN6P (glucosamine-6-phosphate [4])	self-cleavage kobs at 160 uM GlcN6P (glucosamine-6-phosphate [5])	self-cleavage kobs at 640 uM GlcN6P (glucosamine-6-phosphate [6])	self-cleavage kobs at 10000 uM GlcN6P (glucosamine-6-phosphate [7])
C34G A52G	< 1e-05 s⁻¹	< 1e-05 s⁻¹					
U55C U65A	0.00421 ± 0.00073 s⁻¹	0.00204 ± 0.00038 s⁻¹	2040 ± 540 µM	0.0001 ± 1.4e-05 s⁻¹	0.00028 ± 7.3e-05 s⁻¹	0.000826 ± 0.00017 s⁻¹	0.00379 ± 0.00046 s⁻¹
A15U U49G C50G G63A	2.96e-05 ± 6.8e-06 s⁻¹			< 1e-05 s⁻¹			
U65A C67U	0.00212 ± 0.00035 s⁻¹	0.00117 ± 0.00013 s⁻¹	1260 ± 320 µM	7.1e-05 ± 8.1e-06 s⁻¹	0.00022 ± 2.8e-05 s⁻¹	0.000793 ± 8.5e-05 s⁻¹	0.00225 ± 0.00023 s⁻¹
C50U U57A	1.46e-05 ± 7e-07 s⁻¹		397 ± 84 µM	< 1e-05 s⁻¹			< 1e-05 s⁻¹
U31G G66U U69G	4.42e-05 ± 1.3e-05 s⁻¹	6.07e-05 ± 1.6e-05 s⁻¹			6.31e-05 ± 2.1e-05 s⁻¹		
U49C C61U	1.01e-05 ± 1.5e-06 s⁻¹						< 1e-05 s⁻¹
A6C A14U	1.09e-05 ± 1.1e-06 s⁻¹						
G29U G37U	< 1e-05 s⁻¹						< 1e-05 s⁻¹
C16U G44U	0.000229 ± 2.9e-05 s⁻¹	0.000216 ± 4.3e-05 s⁻¹	1160 ± 450 µM			7.8e-05 ± 1.7e-05 s⁻¹	0.000197 ± 2.3e-05 s⁻¹
G29C A33G	1.09e-05 ± 3.1e-06 s⁻¹						
C11A A12C	0.00026 ± 5.5e-05 s⁻¹	0.000182 ± 3.2e-05 s⁻¹	900 ± 380 µM		4.82e-05 ± 1.5e-05 s⁻¹	0.000103 ± 1.8e-05 s⁻¹	0.000406 ± 0.00015 s⁻¹
A12C C50A C68G	2.56e-05 ± 8.7e-06 s⁻¹						
U31G G40C	0.00108 ± 0.00013 s⁻¹	0.000864 ± 0.00017 s⁻¹	1280 ± 250 µM	2.49e-05 ± 8e-06 s⁻¹	0.000124 ± 2e-05 s⁻¹	0.000397 ± 5.8e-05 s⁻¹	0.0009 ± 0.00012 s⁻¹
A52U G66A	0.000745 ± 0.00034 s⁻¹	5.37e-05 ± 1.4e-05 s⁻¹					0.000185 ± 2.9e-05 s⁻¹
C11U G40U	0.000224 ± 2.2e-05 s⁻¹	0.000111 ± 3.6e-05 s⁻¹	3980 ± 910 µM			2.87e-05 ± 7.5e-06 s⁻¹	0.000159 ± 1.6e-05 s⁻¹
G35U G51C	< 1e-05 s⁻¹				< 1e-05 s⁻¹	< 1e-05 s⁻¹	
A14U U31G A64G	0.00476 ± 0.0018 s⁻¹	0.00162 ± 0.00048 s⁻¹		6.69e-05 ± 1.5e-05 s⁻¹		0.000996 ± 0.00037 s⁻¹	0.00468 ± 0.0012 s⁻¹
A39C G44U	4.89e-05 ± 4.8e-06 s⁻¹		4080 ± 1200 µM				3.48e-05 ± 8.8e-06 s⁻¹
